Patent US4508828A, “Bioassay of parathyroid hormone” (Immuno Nuclear Corporation, priority 1983, dated 1985)
“Also recorded” adds a separate entry of the source.

B1: PTH^1-84: parathyroid hormone 1-84 standards of the bioassay (bovine PTH 1-84 standard) (protein, UniProt P01268 32-115, looked up)
Parathyroid hormone: AVSEIQFMHNLGKHLSSMERVEWLRKKLQDVHNFVALGASIAYRDGSSQRPRKKEDNVLVESHQKSLGEADKADVDVLIKAKPQ
modifications: Parathyroid hormone

Molecular target: T1, adenylate cyclase-coupled PTH receptors (Rattus norvegicus, UniProt P25961)
T1 construct: 96-well tissue culture plate containing the rat osteogenic sarcoma cells; endogenous in cells; host or cells: rat osteogenic sarcoma cells (obtained by the methods of Partridge et al. 1981 and Majeska et al. 1980)
T1 sequence (P25961 27-591): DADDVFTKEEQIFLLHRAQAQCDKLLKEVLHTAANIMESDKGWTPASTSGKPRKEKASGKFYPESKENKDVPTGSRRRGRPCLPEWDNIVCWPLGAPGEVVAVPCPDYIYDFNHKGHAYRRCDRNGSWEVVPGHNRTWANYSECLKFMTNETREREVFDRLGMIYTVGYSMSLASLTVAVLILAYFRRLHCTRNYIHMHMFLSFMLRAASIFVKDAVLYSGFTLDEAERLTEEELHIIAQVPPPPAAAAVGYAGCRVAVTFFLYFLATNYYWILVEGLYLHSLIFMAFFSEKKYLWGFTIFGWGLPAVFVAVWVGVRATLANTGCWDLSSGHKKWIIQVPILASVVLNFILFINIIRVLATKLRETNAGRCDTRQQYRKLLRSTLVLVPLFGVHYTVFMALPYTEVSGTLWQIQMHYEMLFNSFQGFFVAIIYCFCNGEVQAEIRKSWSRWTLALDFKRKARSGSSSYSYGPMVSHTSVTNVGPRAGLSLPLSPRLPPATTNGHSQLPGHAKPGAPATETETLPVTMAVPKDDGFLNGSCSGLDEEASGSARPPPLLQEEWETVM
Assay: PTH bioassay: cAMP generation in rat osteogenic sarcoma cell culture, cAMP by radioimmunoassay
Format: cell-based
Conditions: for bioactivity (cAMP generation): standards of the peptide alone, FIG. 3; for cell culture response, human versus bovine bioactive PTH: hPTH^1-34 compared with bPTH^1-34, FIG. 2; for suppression of cAMP generation by serum in the bioassay medium: FIG. 5
Procedure: Rat osteogenic sarcoma cells are maintained in culture in Dulbecco's modified Eagle medium ("DMEM"), disclosed in R. Dulbecco, VIROLOGY, 8: 396 (1959), J. Smith, et al., VIROLOGY, 12: 185-196 (1960), Tissue Culture Standards Committee, IN VITRO, 6(2): 93 and available from Gibco, Grand Island, N.Y., containing 1% fetal calf serum, 9% heat-inactivated horse serum, 100 units/ml of penecilin G and 100 μg/ml streptomycin sulfate in sodium sulfate and normal saline solution, available as a concentrate from Gibco, supra. Cells are maintained in this medium in a humidified atmosphere of 5% carbon dioxide and 95% air at 37° C. This rat osteogenic sarcoma cell culture can be obtained according to the methods set forth in N. Partridge, et al., "Functional Properties Of Hormonally Responsive Cultured Normal And Malignant Rat Ostoblastic Cells," ENDOCRINOLOGY, 108: 213-219 (1981), which is incorporated in its entirety herein by reference thereto. This method of obtaining the cell culture is further described in R. Majeska, et al., "Parathyroid Hormone--Responsive Clonal Cell Lines From Rat Osteosarcoma," ENDOCRINOLOGY, 107: 1494-1503 (1980) and R. Majeska, "Maintenance Of Parathyroid Hormone Response in Clonal Rat Osteosarcoma Cell Lines," EXP. CELL RES., 111: 465 (1978), also incorporated in their entirety herein by reference thereto.
Cells are subcultured from confluent monolayers by removing the culture medium, rinsing the cell layer with Dulbecco's phosphate buffered saline, 0.2 g/l KCl, 0.2 g/l KH2 PO4, […], and Na2 HPO4.7H2 O and available from Gibco, supra, and adding trypsin/EDTA, 0.5 g trypsin (1:250) and 0.2 g EDTA-4Na/l Hank's balanced salt solution without CaCl2, MGCL2.6H2 O and MgSO4.7H2 O and available from Gibco, supra, to cover the cell layer. After 1 minute at 20°-25° C., the trypsin/EDTA is removed and the cells are incubated for 2-3 minutes at 37° C. The cells are resuspended in DMEM and one-fifth to one-tenth of the cells are added to a culture flask of equal size.
For use in the bioassay of PTH, the above cell suspension is diluted with 4 volumes of DMEM and 0.1 ml of the suspension is pipetted into each well of a 96-well tissue culture plate available from Becton Dickinson Labware, Oxnard, Calif. The cells are cultured in the same atmosphere as above and are ready for use in the bioassay in 24-28 hours.
15. The dried eluates are dissolved in 0.6 ml of bioassay medium at 20°-25° C., said bioassay medium consisting of 0.1% glucose, 1% BSA, 1 mM methylisobutylxanthine, and 0.005% phenol red in Dulbecco's phosphate buffer saline (pH 7.3 or within range of about 7-7.5).
To perform the bioassay of PTH, the medium is removed from all wells of the 96-well tissue culture plate containing the rat osteogenic sarcoma cells by inversion of the plate and blotting of any remaining drops of medium. The plate is replaced upright and 100 μl of the redissolved N-terminal affinity column eluates are added to each of 4 wells of the plate. The plate is incubated at 20°-25° C. for 30 minutes. At this time, the plate is inverted and blotted to remove all remaining medium, replaced upright and placed on ice.
Each well is washed 3 times by addition of 300 μl of ice cold 0.85% saline followed by inversion and […]. After the third saline wash, 200 μl of ice cold 95% ethyl alcohol containing 0.02M HCl (EtOH/HCl) is added to each well and the plate is incubated at -20° C. for 16-24 hours in order to extract the cAMP from the cells. At the end of this extraction, the EtOH/HCl is removed from each well with a pipet and rinsed with an additional 200 μl of EtOH/HCl. The rinse is combined with the original extract and the solution is dried. An appropriate device for drying the EtOH/HCl samples is a Speed-Vac Concentrator/Evaporator, available from Savant Instruments, Inc., Hicksville, N.Y. The amount of cAMP extracted from the cell layer in each well is quantitated using a radioimmunoassay for cAMP. […]

Row | Molecule | bioactivity (cAMP generation) | cell culture response, human versus bovine bioactive PTH | other results
1 | (norleucine^8,18)bPTH^3-34 amide | virtual absence of bioactivity |  | antagonism of bPTH^1-84 (inhibition of cAMP generation) (bPTH^1-84 added to the standards, FIG. 4): very strong antagonist; bioactivity (cAMP generation) (listed as hPTH^3-34 amide): not bioactive
2 | hPTH^65-84: human parathyroid hormone fragment 65-84 (KSLGEADKADVNVLTKAKSQ; Parathyroid hormone; UniProt P01270 96-115, looked up, fragment) | not bioactive; also recorded: virtual absence of bioactivity |  | 
3 | hPTH^1-34: human parathyroid hormone fragment 1-34, available from Peninsula Laboratories |  | respond similarly; also recorded: very close correlation of response | 
4 | bPTH^1-34: bovine parathyroid hormone fragment 1-34 |  | respond similarly; also recorded: very close correlation of response | 
5 | hPTH^37-84: human parathyroid hormone fragment 37-84 (LGAPLAPRDAGSQRPRKKEDNVLVESHEKSLGEADKADVNVLTKAKSQ; Parathyroid hormone; UniProt P01270 68-115, looked up, fragment) | not bioactive; also recorded: virtual absence of bioactivity |  | 
6 | B1 |  |  | suppression of cAMP generation by serum in the bioassay medium (10% serum (fetal calf serum) in bioassay medium): 50 fold; suppression of cAMP generation by serum in the bioassay medium (50% serum (human serum) in bioassay medium): 100 fold
